The record followed here is US20080235828A1 (University of Manitoba, priority 2004, published 2008).

One series deals with em promoter. The series can be described thus: em promoter driven GUS expression in bombarded barley aleurone layers. Type of series: cell-based. The settings on record: em plus ABAP1 bombardment, without ABA treatment. The text has this: The studies examined the effector and reporter constructs, at a 1:1 ratio, introduced to barley aleurone layers by gold particle bombardment. The bombardment consisted of two trials: the first trial was a bombardment of em promoter only; the second trial was a bombardment of em promoters treated with ABAP1.

Another series concerns α-amylase activity. The series can be described thus: α-amylase activity in bombarded barley aleurones. The class given is cell-based. The settings on record: em and ABAP1 bombarded aleurones.
The next series deals with McLeod barley embryos. The series can be described thus: Germination of bombarded mature embryos, McLeod line. Type of series: in vivo. Conditions: in the presence of ABAP1. How it is done: (§1) To determine whether or not ABAP1 affects seed germination, mature embryo from two different barley lines (McLeod and Harrington) were bombarded with sense and anti-sense orientation of ABAP1. The embryos were subjected to different ABA treatments and the germination rate, plumule length, radical length and root numbers per embryo were measured for up to four days after bombardment.

The test system of series [1] is Harrington barley embryos. The series can be described thus: Germination and growth of bombarded mature embryos, Harrington line. Type of series: in vivo. How it is done: as §1

Protocol for α-amylase activity: A similar experiment was conducted with α-amylase activity to confirm if ABAP1 is involved in another signal transduction pathway. α-amylase activity was measured after ABA, PBI51 and GA were added to the em and ADAPT bombarded barley aleurones.

B1: ABAP1: barley ABA-binding protein, 472 amino acids, SEQ ID NO: 10; expressed from effector construct in bombardment tests (protein)
chain: MNSLSGTYIMRGCEQPLIVRFADPKRPRPGESRGGPAFGGPGVSSRSDAALVIRPTANLDEQIGRHMPPDTWRPSSPSSMAPHQFNNFGSDNSMGLMGGPVTSAADNVAFRPQLFHGNGSLSSQTAVPASSHMGINPSLSQGHHLGGPQIPPLQKPTGLQQNFPVQLQNAQQGQLHASQSLGPGSFGQNIPTMQLPGQLPVSQPLTQQNASACALQAPSAVQSNPMQSVPGQQQLPSNLTPQMLQQPVQQMLSQAPQLLLQQQQAAMQSSYQSSQQTIFQLQQQLQLMQQQQHQQQPNLNQQPHTQVPKQQGQPVQSNAPGAPAAMMTTNINAIPQQVNSPAVSLTCNWTEHTSPEGFKYYYNSITRESKWEKPEEYVLYEQQQQQQDHQKLILLQQHQQKLVAQQLQSPPQAQTIPSMQSMQHHPQSQQGHNQMQMKQQDLNYNQLQPTGTIDPSRIQQGIQAAQERSWKS
modifications: Hordeum, vulgare subsp. vulgare
For B1, the “GUS activity versus em alone” value in the series with em promoter was “twice fold”. In addition, the α-amylase activity result in the series with α-amylase activity is reported as “reduction”. Further, in the series with McLeod barley embryos, the germination rate entry is listed as “significantly lower”. Also, the germination rates result in series [1] was “did not seem to be affected”. Also, the “plumule and radical growth” value in series [1] (in the presence of ABAP1) was “significantly retarded”.
